Data reported in the supplement of paper PMC11246515.
± gives the standard deviation of the averaged measurements.

Assay: total protein half-life in vivo (active degradation + dilution); higher = more stable protein
[1] = E. coli NCM3722 delta-clpP delta-lon delta-hslV, growth: N-lim chemostat, doubling time 6 h
[2] = E. coli NCM3722 delta-clpP, growth: N-lim chemostat, doubling time 6 h
[3] = E. coli NCM3722 delta-hslV, growth: N-lim chemostat, doubling time 6 h
[4] = E. coli NCM3722 delta-lon, growth: N-lim chemostat, doubling time 6 h
[5] = E. coli NCM3722 delta-smpB, growth: N-lim chemostat, doubling time 6 h
[6] = wild type E. coli NCM3722, growth: C-lim chemostat, doubling time 3 h
[7] = wild type E. coli NCM3722, growth: C-lim chemostat, doubling time 6 h
[8] = wild type E. coli NCM3722, growth: N-lim chemostat, doubling time 6 h
[9] = wild type E. coli NCM3722, growth: N-lim chemostat, doubling time 12 h
[10] = wild type E. coli NCM3722, growth: P-lim chemostat, doubling time 6 h
[11] = wild type E. coli NCM3722, growth: P-lim chemostat, doubling time 12 h
[12] = wild type E. coli NCM3722, growth: C-lim chemostat, doubling time 12 h

| Sequence | total protein half-life in vivo [1] [h] | total protein half-life in vivo [2] [h] | total protein half-life in vivo [3] [h] | total protein half-life in vivo [4] [h] | total protein half-life in vivo [5] [h] | total protein half-life in vivo [6] [h] | total protein half-life in vivo [7] [h] | total protein half-life in vivo [8] [h] | total protein half-life in vivo [9] [h] | total protein half-life in vivo [10] [h] | total protein half-life in vivo [11] [h] | total protein half-life in vivo [12] [h] |
| --- | --- | --- | --- | --- | --- | --- | --- | --- | --- | --- | --- | --- |
| MQVLPPSSTGGPSRLFIMRPVATTLLMVAILLAGIIGYRALPVSALPEVDYPTIQVVTLYPGASPDVMTSAVTAPLERQFGQMSGLKQMSSQSSGGASVITLQFQLTLPLDVAEQEVQAAINAATNLLPSDLPNPPVYSKVNPADPPIMTLAVTSTAMPMTQVEDMVETRVAQKISQISGVGLVTLSGGQRPAVRVKLNAQAIAALGLTSETVRTAITGANVNSAKGSLDGPSRAVTLSANDQMQSAEEYRQLIIAYQNGAPIRLGDVATVEQGAENSWLGAWANKEQAIVMNVQRQPGANIISTADSIRQMLPQLTESLPKSVKVTVLSDRTTNIRASVDDTQFELMMAIALVVMIIYLFLRNIPATIIPGVAVPLSLIGTFAVMVFLDFSINNLTLMALTIATGFVVDDAIVVIENISRYIEKGEKPLAAALKGAGEIGFTIISLTFSLIAVLIPLLFMGDIVGRLFREFAITLAVAILISAVVSLTLTPMMCARMLSQESLRKQNRFSRASEKMFDRIIAAYGRGLAKVLNHPWLTLSVALSTLLLSVLLWVFIPKGFFPVQDNGIIQGTLQAPQSSSFANMAQRQRQVADVILQDPAVQSLTSFVGVDGTNPSLNSARLQINLKPLDERDDRVQKVIARLQTAVDKVPGVDLFLQPTQDLTIDTQVSRTQYQFTLQATSLDALSTWVPQLMEKLQQLPQLSDVSSDWQDKGLVAYVNVDRDSASRLGISMADVDNALYNAFGQRLISTIYTQANQYRVVLEHNTENTPGLAALDTIRLTSSDGGVVPLSSIAKIEQRFAPLSINHLDQFPVTTISFNVPDNYSLGDAVQAIMDTEKTLNLPVDITTQFQGSTLAFQSALGSTVWLIVAAVVAMYIVLGILYESFIHPITILSTLPTAGVGALLALLIAGSELDVIAIIGIILLIGIVKKNAIMMIDFALAAEREQGMSPREAIYQACLLRFRPILMTTLAALLGALPLMLSTGVGAELRRPLGIGMVGGLIVSQVLTLFTTPVIYLLFDRLALWTKSRFARHEEEA | 6.53 ± 0.31 | 6.24 ± 0.12 | 6.58 ± 0.74 | 6.07 ± 0.56 | 5.45 ± 0.45 | 2.98 | 6.17 ± 0.74 | 6.15 ± 0.94 | 13.1 ± 0.4 | 7.07 ± 0.49 | 12.347 ± 0.0014 |  |
| MKKISLPKIGIRPVIDGRRMGVRESLEEQTMNMAKATAALLTEKLRHACGAAVECVISDTCIAGMAEAAACEEKFSSQNVGLTITVTPCWCYGSETIDMDPTRPKAIWGFNGTERPGAVYLAAALAAHSQKGIPAFSIYGHDVQDADDTSIPADVEEKLLRFARAGLAVASMKGKSYLSLGGVSMGIAGSIVDHNFFESWLGMKVQAVDMTELRRRIDQKIYDEAELEMALAWADKNFRYGEDENNKQYQRNAEQSRAVLRESLLMAMCIRDMMQGNSKLADIGRVEESLGYNAIAAGFQGQRHWTDQYPNGDTAEAILNSSFDWNGVREPFVVATENDSLNGVAMLMGHQLTGTAQVFADVRTYWSPEAIERVTGHKLDGLAEHGIIHLINSGSAALDGSCKQRDSEGNPTMKPHWEISQQEADACLAATEWCPAIHEYFRGGGYSSRFLTEGGVPFTMTRVNIIKGLGPVLQIAEGWSVELPKDVHDILNKRTNSTWPTTWFAPRLTGKGPFTDVYSVMANWGANHGVLTIGHVGADFITLASMLRIPVCMHNVEETKVYRPSAWAAHGMDIEGQDYRACQNYGPLYKR | 4.26 ± 0.39 | 4.38 |  | 3.06 | 3.21 | 3.42 ± 0.12 | 5.12 ± 0.1 | 2.78 ± 0.2 |  | 5.22 ± 0.62 | 10.9 ± 1.1 | 9.64 ± 0.84 |
| MFRRRGVTLTKALLTAVCMLAAPLTQAISVGNLTFSLPSETDFVSKRVVNNNKSARIYRIAISAIDSPGSSELRTRPVDGELLFAPRQLALQAGESEYFKFYYHGPRDNRERYYRVSFREVPTRNHTRRSPTGGVVSTEPVVVMDTILVVRPRQVQFKWSFDKVTGTVSNTGNTWFKLLIKPGCDSTEEEGDAWYLRPGDVVHQPELRQPGNHYLVYNDKFIKISDSCPAKPPSAD | 4.58 | 4.57 ± 0.28 | 3.66 | 4.37 | 4.89 ± 0.82 | 2.51 ± 0.53 | 3.37 | 3.84 | 6.84 |  | 9.993 ± 0.096 | 9.74 |
| MAGWHLDTKMAQDIVARTMRIIDTNINVMDARGRIIGSGDRERIGELHEGALLVLSQGRVVDIDDAVARHLHGVRQGINLPLRLEGEIVGVIGLTGEPENLRKYGELVCMTAEMMLEQSRLMHLLAQDSRLREELVMNLIQAEENTPALTEWAQRLGIDLNQPRVVAIVEVDSGQLGVDSAMAELQQLQNALTTPERNNLVAIVSLTEMVVLKPALNSFGRWDAEDHRKRVEQLITRMKEYGQLRFRVSLGNYFTGPGSIARSYRTAKTTMVVGKQRMPESRCYFYQDLMLPVLLDSLRGDWQANELARPLARLKTMDNNGLLRRTLAAWFRHNVQPLATSKALFIHRNTLEYRLNRISELTGLDLGNFDDRLLLYVALQLDEER |  |  |  |  |  | 2.67 ± 0.12 | 6.76 |  |  |  |  | 10.2 ± 3 |
| MRTLLAILLFPLLVQAAGEGMWQASSVGITLNHRGESMSSAPLSTRQPASGLMTLVAWRYQLIGPTPSGLRVRLCSQSRCVELEGQSGTTVAFSGIAAAEPLRFIWEVPGGGRLIPPLKVQRNEVIVNYR |  |  |  |  |  |  | 4.74 |  |  |  |  | 8.78 ± 2.5 |
| MLQHYSVSWKKGLAALCLLAVAGLSGCDQQENAAAKVEYDGLSNSQPLRVDANNHTVTMLVQINGRFLTDDTRHGIVFKDGSNGHKSLFMGYATPKAFYEALKEAGGTPGENMTMDNKETTHVTGSKLDISVNWQGAAKAYSFDEVIVDSNGKKLDMRFGGNLTAAEEKKTGCLVCLDSCPVGIVSNATYTYGAVEKRGEVKFKGNASVLPADNTLATVTFKIAE | 5.59 ± 0.95 | 6.08 ± 0.12 | 6.34 ± 0.64 | 6.31 ± 0.53 | 6.66 ± 0.39 | 2.87 ± 0.32 | 6.91 ± 0.16 | 6.55 ± 0.35 | 12.4 ± 0.69 | 4.96 ± 0.71 | 14.84 ± 0.069 |  |
| MNGELIWVLSLLAVAIVLFATGRVRMDAVALFVIVAFALSGTLTVPEVFSGFSDPNVVLIAALFIIGDGLVRTGVATVMGTWLVKVAGNSEIKMLVLLMLTVAGLGAFMSSTGVVAIFIPVVLSVAMRMQTSPSRLMMPLSFAGLISGMMTLVATPPNLVVNSELLREGYHGFSFFSVTPIGLVVLVLGILYMLVMRFMLKGDTQTPQREGWTRRTFRDLIREYRLTGRARRLAIRPGSPMIGQRLDDLKLRERYGANVIGVERWRRFRRVIVNVNGVSEFRARDVLLIDMSAADVDLRQFCSEQLLEPMVLRGEYFSDQALDVGMAEISLIPESELIGKSVREIGFRTRYGLNVVGLKRNGVALEGSLADEPLLLGDIILVVGNWKLIGMLAKQGRDFVALNLPEEVSEASPAHSQAPHAIFCLVLMVALMLTDEIPNPVAAIIACLLMGKFRCIDAESAYKSIHWPSIILIVGMMPFAVALQKTGGVALAVKGLMDIGGGYGPHMMLGCLFVLSAVIGLFISNTATAVLMAPIALAAAKTMGVSPYPFAMVVAMAASAAFMTPVSSPVNTLVLGPGNYSFSDFVKLGVPFTIIVMAVCVVMIPMLFPF [P0AFU2] |  |  | 6.68 ± 0.32 | 6.39 ± 0.64 | 6.29 ± 0.45 | > 4 | 5.46 | 5.65 ± 1.7 | 12.4 ± 3.2 | > 8 | 12.8 ± 1.7 |  |
